These results are taken from the supplement of paper PMC10567573.

B1: CLCN6 (parent)
chain: VGEIVGIITRHNLTYEFLQARLRQ
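Further: lentivirally expressed fusions sorted by FACS into six bins by GFP to DsRed ratio, PSI derived from sequencing read proportions per bin multiplied by bin number.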

In this series the parent is B1. As to the kind of experiment: protein stability index of a GFP-peptide fusion (GPS, HEK-293T) (PSI 1-6); higher = more stable. The following applies: c terminus: a fixed tail appended.
With VGEIVGIITRHPLTYEFLQARLRQ [N12P], the protein stability index was 1.92.
Consider VGEIVGIITRHRLTYEFLQARLRQ [N12R], for which the protein stability index is 2.69.
Regarding VGEIVGIITRHGLTYEFLQARLRQ [N12G], the protein stability index worked out at 5.11.
The value for VGEIVGIITRHDLTYEFLQARLRQ [N12D] was 2.21.
To VGEIVGIITRHALTYEFLQARLRQ [N12A] belongs 5.
The value for VGEIVGIITRHILTYEFLQARLRQ [N12I] was 1.15.
With VGEIVGIITRHELTYEFLQARLRQ [N12E], the protein stability index was determined as 1.16.
For VGEIVGIITNHNLTYEFLQARLRQ [R10N], the protein stability index came out at 2.88.
For VGEIVGIITDHNLTYEFLQARLRQ [R10D], the protein stability index was determined as 2.73.
To VGEIVGIITPHNLTYEFLQARLRQ [R10P] belongs 1.75; to VGEIVGIITEHNLTYEFLQARLRQ [R10E], 2.92.
The value for VGEIVGIITYHNLTYEFLQARLRQ [R10Y] was 1.93; that for VGERVGIITRHNLTYEFLQARLRQ [I4R] was 2.72; that for VGEYVGIITRHNLTYEFLQARLRQ [I4Y] was 2.53.
VGEKVGIITRHNLTYEFLQARLRQ [I4K]: the protein stability index came out at 2.15.
To VGEFVGIITRHNLTYEFLQARLRQ [I4F] belongs 1.52; to VGEQVGIITRHNLTYEFLQARLRQ [I4Q], 2.38; to VGENVGIITRHNLTYEFLQARLRQ [I4N], 2.37.
To VGEVVGIITRHNLTYEFLQARLRQ [I4V] belongs 2.06; to VGETVGIITRHNLTYEFLQARLRQ [I4T], 1.75; to VGEEVGIITRHNLTYEFLQARLRQ [I4E], 2.51.
With VGEAVGIITRHNLTYEFLQARLRQ [I4A], the protein stability index turned out to be 2.1.
VGEMVGIITRHNLTYEFLQARLRQ [I4M]: the protein stability index turned out to be 2.33.
The value for VGEGVGIITRHNLTYEFLQARLRQ [I4G] was 2.33.
To VGECVGIITRHNLTYEFLQARLRQ [I4C] belongs 2.18; to VGEHVGIITRHNLTYEFLQARLRQ [I4H], 2.02; to VGEIVTIITRHNLTYEFLQARLRQ [G6T], 3.72.
In the case of VGEIVHIITRHNLTYEFLQARLRQ [G6H], the protein stability index stood at 2.89.
In the case of VGEIVPIITRHNLTYEFLQARLRQ [G6P], the protein stability index was determined as 1.7.
In the case of VGEIVEIITRHNLTYEFLQARLRQ [G6E], the protein stability index was 4.38.
To VGPIVGIITRHNLTYEFLQARLRQ [E3P] belongs 3.11; to VGHIVGIITRHNLTYEFLQARLRQ [E3H], 2.38.
To VGTIVGIITRHNLTYEFLQARLRQ [E3T] belongs 1.74; to VGQIVGIITRHNLTYEFLQARLRQ [E3Q], 3.17; to VGWIVGIITRHNLTYEFLQARLRQ [E3W], 2.42.
Turning to VGRIVGIITRHNLTYEFLQARLRQ [E3R], the protein stability index worked out at 2.51.
The value for VGDIVGIITRHNLTYEFLQARLRQ [E3D] was 2.05.
To VGAIVGIITRHNLTYEFLQARLRQ [E3A] belongs 2.59; to VLEIVGIITRHNLTYEFLQARLRQ [G2L], 2.48.
As for VDEIVGIITRHNLTYEFLQARLRQ [G2D], the protein stability index amounted to 2.23.
The value for VEEIVGIITRHNLTYEFLQARLRQ [G2E] was 1.75.
For the variant VCEIVGIITRHNLTYEFLQARLRQ [G2C], the protein stability index was 2.06.
To VYEIVGIITRHNLTYEFLQARLRQ [G2Y] belongs 1.98; to VAEIVGIITRHNLTYEFLQARLRQ [G2A], 3.29.
VPEIVGIITRHNLTYEFLQARLRQ [G2P]: the protein stability index turned out to be 1.86.
On to VTEIVGIITRHNLTYEFLQARLRQ [G2T], for which the protein stability index was determined as 2.6.
With VVEIVGIITRHNLTYEFLQARLRQ [G2V], the protein stability index worked out at 2.66.
On to VQEIVGIITRHNLTYEFLQARLRQ [G2Q], for which the protein stability index was found to be 1.13.
VNEIVGIITRHNLTYEFLQARLRQ [G2N]: the protein stability index worked out at 3.
As for VWEIVGIITRHNLTYEFLQARLRQ [G2W], the protein stability index came to 3.19.
In the case of VMEIVGIITRHNLTYEFLQARLRQ [G2M], the protein stability index came to 1.09.
In the case of VGEIVGIITRHNQTYEFLQARLRQ [L13Q], the protein stability index came to 1.69.
The value for VGEIVGIITRHNMTYEFLQARLRQ [L13M] was 1.86.
With VGEIVGIITRHNITYEFLQARLRQ [L13I], the protein stability index worked out at 3.13.
Regarding VGEIVGIITRHNWTYEFLQARLRQ [L13W], the protein stability index was found to be 3.73.
Take VGEIVGIITRHNATYEFLQARLRQ [L13A]: the protein stability index was found to be 1.63.
On to VGEIVGIITRHNETYEFLQARLRQ [L13E], for which the protein stability index is 2.18.
As to VGEIVGIITRHNFTYEFLQARLRQ [L13F], the protein stability index amounted to 2.15.
The value for VGEIVGIITRHNGTYEFLQARLRQ [L13G] was 1.7; that for VGEIVGIITRHNHTYEFLQARLRQ [L13H] was 1.51; that for VGEIVGIITRHNVTYEFLQARLRQ [L13V] was 2.04.
For the variant VGEIVGIITRHNLTYESLQARLRQ [F17S], the protein stability index came to 2.71.
To VGEIVGIITRHNLTYEPLQARLRQ [F17P] belongs 2.11; to VGEIVGIITRHNLTYEHLQARLRQ [F17H], 1.04.
In the case of VGEIVGIITRHNLTYECLQARLRQ [F17C], the protein stability index is 1.8.
To VGEIVGIITRHNLTYEILQARLRQ [F17I] belongs 2.02; to VGEIVGIITRHNLTYETLQARLRQ [F17T], 1.87.
Consider VGEIVGHITRHNLTYEFLQARLRQ [I7H], for which the protein stability index is 2.05.
To VGEIVGPITRHNLTYEFLQARLRQ [I7P] belongs 2.56; to VGEIVGQITRHNLTYEFLQARLRQ [I7Q], 2.72; to VGEIVGKITRHNLTYEFLQARLRQ [I7K], 1.7.
For VGEIVGYITRHNLTYEFLQARLRQ [I7Y], the protein stability index came out at 3.15.
Regarding VGEIVGAITRHNLTYEFLQARLRQ [I7A], the protein stability index was 1.77.
To VGEIVGTITRHNLTYEFLQARLRQ [I7T] belongs 1.73; to VGEIVGCITRHNLTYEFLQARLRQ [I7C], 2.31; to VGEIVGIIDRHNLTYEFLQARLRQ [T9D], 1.92.
To VGEIVGIICRHNLTYEFLQARLRQ [T9C] belongs 2.71.
For VGEIVGIINRHNLTYEFLQARLRQ [T9N], the protein stability index stood at 2.88.
To VGEIVGIISRHNLTYEFLQARLRQ [T9S] belongs 2.77.
Take VGEIVGIILRHNLTYEFLQARLRQ [T9L]: the protein stability index amounted to 1.89.
To VGEIVGIITRHNLTYEFLQAVLRQ [R21V] belongs 1.67; to VGEIVGIITRHNLTYEFLQADLRQ [R21D], 2.76; to VGEIVGIITRHNLTYEFLQAKLRQ [R21K], 1.06.
As to VGEIVGIITRHNLTYEFLQATLRQ [R21T], the protein stability index turned out to be 2.69.
The value for VGEIVGIITRHNLTYEFLQANLRQ [R21N] was 2.01; that for VGEIVGIITRHNLTYEFRQARLRQ [L18R] was 2.55; that for VGEIVGIITRHNLTYEFYQARLRQ [L18Y] was 4.04.
For VGEIVGIITRHNLTYEFPQARLRQ [L18P], the protein stability index was 2.81.
VGEIVGIITRHNLTYEFGQARLRQ [L18G]: the protein stability index is 1.58.
The value for VGEIVGIITRHNLTYEFEQARLRQ [L18E] was 3.96; that for VGEIVGIITRHNLTYEFFQARLRQ [L18F] was 2.71.
The value for VGEIVGIITRHNLTYEFMQARLRQ [L18M] was 2.33; that for VGEIVGIITRHNLTYEFDQARLRQ [L18D] was 2.26.
To VGEIVGIITRHNLTYEFNQARLRQ [L18N] belongs 1.6.
